Assay results reported in article PMC3832651, “Characterization of Neutral Lipase BT-1 Isolated from the Labial Gland of Bombus terrestris Males” (PLoS ONE, 2013).

Substrate: CCCCCCCCCCCC(=O)Oc1ccc([N+](=O)[O-])cc1
Assay: purified protein
Assay type: biochemical, Bombus terrestris
Conditions: 50 mM Tris/HCl, pH 8.2, 25°C, p-NPL 0.05-0.4 mM added in 2-propanol

B1: lipase BT-1 (Bombus terrestris) (protein)
chain: VICDVEDTLHVSRKIRLKIYKGNSSYFSSTESMVMNPGNIADDILPDRDSILYIHGFLENTEAENVRVIIRAYLDKGDVNVIVLDWGEIAFNINYVYVSSQVVTIAKAVAESLKKLVDLIDLDTLHVIGHSLGAHIAGNIGRYANINLSRITGLDPALPLFYPSTCHVRSTDAEAVVILHTDGGFYGTATNTGTIDFYVNGGSSVQPGCPIIFGGEFCSHQRSTRIYAESLLNPKAFPAHKCLNEIADTEEVYFGDSTPKDIYGTYCFNTNAKPPYGKTI
notes: native, purified from labial gland (cephalic part) of 2- to 3-day-old males on octyl-agarose, Triton X-100 desorption; ~30 kDa on SDS-PAGE; identified by MS (18 peptides); catalytic triad Ser155, Asp179, His244
With B1 as the protein, how does the Km read?
Its Km is 1.1 ± 0.3 µM.

What about the Vmax of the same protein?
The Vmax was 0.15 µmol/min/mg.
